These results are taken from paper PMC3616737.

Data set [1] has as its target T1, XMRV reverse transcriptase (full-length, monomeric) (Xenotropic murine leukaemia …, UniProt A1Z651 658-1328). Nature of the data set: SAXS.
The target in data set [2] is T1, XMRV reverse transcriptase …. Nature of the data set: SAXS. This is another data set of the same source.
For data set [3] the target is unchanged. Nature of the data set: X-ray crystallography.

B1: PPT-18 (DNA:RNA)
RNA: AGUCUCCAGAAAAAGGGGGGAAUGA
DNA: CATTCCCCCCTTTTTCTGGAGA
Take B1: the binding result in data set [1] is recorded as “binds”.

B2: PPT-19 (DNA:RNA)
RNA: UAGUCUCCAGAAAAAGGGGGGAAUG
DNA: ATTCCCCCCTTTTTCTGGAGAC
Take B2: in data set [2], the binding result was “binds”.

B3: hybrid 1 (DNA:RNA)
RNA: AACAGAGUGCGACACCUGAUUCCAU
DNA: TGGAATCAGGTGTCGCACTCTG
For the molecule B3, the binding result in data set [3] is given as “binds”.
